This series addresses SARS-CoV-2 spike protein extracellular domain (ECD), biotinylated (SARS-CoV-2, UniProt P0DTC2). In words: bead-based flow cytometry. To be noted: protein: commercial; chain copies: 3. On the technique in general: A flow cytometer gives signals particle by particle.

The text below walks through data of publication PMC10968392, “Fluorometric and Colorimetric Method for SARS-CoV-2 Detection Using Designed Aptamer Display Particles”.

B1: C1-AdP (SpS1-C1 displayed on magnetic particle) (ssDNA)
DNA: GAACATTGGCGTCCGTGAGTGAGACCATAGTCCAGCGAACTAAACCTACCCTAAAGGGCAAGGAAGACGGGCACTTCCTCAAACGCCCAA
modifications: 5' amino linkage to bead
B1: the binding result was “binds”.

B2: C4-AdP (SpS1-C4 displayed on magnetic particle) (ssDNA)
DNA: GAACATTGGCGTCCGTGAGCAGCTCGTGGTTGTTTGCTTGTATACTTTTGTGGTTTATCTTGTTTCTGATCACTTCCTCAAACGCCCAA
modifications: 5' amino linkage to bead
Turning to B2, the binding result is given as “binds”.
